{"source": "patent US20200157212A1", "about": "(Pfizer, published 2020)", "binders": {"B1": {"name": "Abcs35 (antibody, human IgG1, kappa)", "heavy": "EVQLVQSGAEVKKPGASVKVSCKASGYTFTGYYMHWVRQAPGQGLEWMGWINPKNGDTEFPQKFQGRVTMTRDTSITTAYMDLSRLRSDDTAVYYCARESGDDAFDIWGQGTMVTVSSASTKGPSVFPLAPSSKSTSGGTAALGCLVKDYFPEPVTVSWNSGALTSGVHTFPAVLQSSGLYSLSSVVTVPSSSLGTQTYICNVNHKPSNTKVDKKVEPKSCDKTHTCPPCPAPEAAGAPSVFLFPPKPKDTLMISRTPEVTCVVVDVSHEDPEVKFNWYVDGVEVHNAKTKPREEQYNSTYRVVSVLTVLHQDWLNGKEYKCKVSNKALPAPIEKTISKAKGQPREPQVYTLPPSREEMTKNQVSLTCLVKGFYPSDIAVEWESNGQPENNYKTTPPVLDSDGSFFLYSKLTVDKSRWQQGNVFSCSVMHEALHNHYTQKSLSLSPGK", "light": "DIVMTQSPSSLSASVGDRVTITCRASQSISSYLNWYQQKPGKAPKLLIYAASSLQSGVPSRFSGSGSGTDFTLTISSLQPEDFATYYCQQSVGLFFGGGTKVEIKRTVAAPSVFIFPPSDEQLKSGTASVVCLLNNFYPREAKVQWKVDNALQSGNSQESVTEQDSKDSTYSLSSTLTLSKADYEKHKVYACEVTHQGLSSPVTKSFNRGEC", "notes": "fully human IgG1; VH of Ab96 with VL of Ab123"}}, "key": {"[1]": {"target": "T1, Human ROBO2 Ig1-Ig2-His (human, UniProt Q9HCK4 31-220)", "T1 construct": "the His tag is named only in the SPR paragraphs; the Octet and ELISA paragraphs print 'ROBO2 Ig1-Ig2' without a tag; also called ROBO2 Ig1-2; Human ROBO2 Ig 1,2", "T1 sequence": "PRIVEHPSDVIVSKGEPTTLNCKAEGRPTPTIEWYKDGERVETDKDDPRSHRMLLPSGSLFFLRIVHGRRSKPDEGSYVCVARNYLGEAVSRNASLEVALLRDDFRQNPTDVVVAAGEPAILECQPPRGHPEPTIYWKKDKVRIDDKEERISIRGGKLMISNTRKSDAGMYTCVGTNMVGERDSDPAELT", "assay": "Octet method and SPR method"}, "[2]": {"target": "T2, Human ROBO2 Ig 1,2 KSR mutant (human, UniProt Q7TPD3 31-220 (mouse entry), limits assumed)", "T2 construct": "recombinant protein; also called ROBO2-KSR mutant protein; Human ROBO2 Ig1-2 with the RSK mutated to KSR", "T2 chain": "T1 sequence with R70K, K72R", "assay": "Octet Red BLI, Abcs35 captured on AHC sensors, ROBO proteins in solution", "from_the_text": "(§1) Octet Red AHC (Anti-Human IgG FC) Sensors were loaded with Abcs35. The loaded sensors were then exposed to Human ROBO2 Ig1-2, Rat ROBO2 Ig 1-2, Human ROBO2 Ig1-2 with the RSK mutated to KSR as in ROBO1, or ROBO1 Ig1-2 then the sensors were moved to PBS only, lacking any ROBO1 or 2 proteins. The arrows indicate curves for each of the ROBO proteins tested.\n(§2) Based upon the crystal structure described above, the following experiments were done to confirm the epitope specificity of 93H2 and/or affinity matured clones Abcs35. Using Octet Red, epitope specificity was confirmed biochemically. Abcs35, at 10 μg/ml, was captured on AHC sensors for 60 seconds. Recombinant human ROBO2 Ig1-Ig2, rat […], human ROBO2 containing the ROBO1 KSR sequence (ROBO2-KSR mutant), and human ROBO1 Ig1-Ig2, prepared at 100 nM, were used to interact with captured Abcs35. Association time was 100 seconds then dissociation was followed for 20 seconds. Abcs35 specifically bound human and rat ROBO2 but not human ROBO1 or the ROBO2-KSR mutant protein (FIG. 2)."}, "[3]": {"target": "T3, Human ROBO1 Ig1-Ig2 (human, UniProt Q9Y6N7 68-257)", "T3 construct": "recombinant protein; also called ROBO1 Ig1-2; Human ROBO1 Ig 1,2", "T3 sequence": "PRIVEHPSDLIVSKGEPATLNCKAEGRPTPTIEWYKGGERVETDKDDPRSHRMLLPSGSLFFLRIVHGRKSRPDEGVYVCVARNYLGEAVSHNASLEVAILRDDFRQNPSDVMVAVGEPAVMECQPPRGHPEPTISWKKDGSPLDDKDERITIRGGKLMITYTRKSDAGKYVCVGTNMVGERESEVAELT", "assay": "Octet Red BLI, Abcs35 captured on AHC sensors, ROBO proteins in solution", "from_the_text": "as §1, §2"}}, "note": "Residue numbers refer to the chain shown, from its start.", "data": [{"binder": "B1", "values": [{"measurement": "Kd", "setting": "[1]", "value": 0.279, "unit": "nM"}, {"measurement": "binding result", "setting": "[2]", "value": "no binding"}, {"measurement": "binding result", "setting": "[3]", "value": "no binding"}]}]}
